From article PMC3718817 (2013) come the findings set out here.

B1: Gal4AD-Sds22 [S. cerevisiae] / Gal4(1-147)-Glc7 [S. cerevisiae] (parent complex)
chain 1: MDKNSVNKDSEEKDERHKIEVVDDTNPDFITADSELTQDLPDDVEVIDLVHLKIKSLEDLNLYRFKNLKQLCLRQNLIESISEVEVLPHDKIVDLDFYDNKIKHISSNVNKLTKLTSLDLSFNKIKHIKNLENLTDLENLYFVQNSISKIENLSTLKSLKNLELGGNKVHSIEPDSFEGLSNLEEIWLGKNSIPRLINLHPLKNLKILSIQSNKLKKIENLEELTNLEELYLSHNFITKIEGLEKNLKLTTLDVTSNKITSLENLNHLSNLTDIWASFNKIDQSFESLGENLSALSRLETIYLEGNPIQLENKTSYRRKLTMNLPPSLQKIDATYIRG
chain 2: MDSQPVDVDNIIDRLLEVRGSKPGQQVDLEENEIRYLCSKARSIFIKQPILLELEAPIKICGDIHGQYYDLLRLFEYGGFPPESNYLFLGDYVDRGKQSLETICLLLAYKIKYPENFFILRGNHECASINRIYGFYDECKRRYNIKLWKTFTDCFNCLPIAAIIDEKIFCMHGGLSPDLNSMEQIRRVMRPTDIPDVGLLCDLLWSDPDKDIVGWSENDRGVSFTFGPDVVNRFLQKQDMELICRAHQVVEDGYEFFSKRQLVTLFSAPNYCGEFDNAGAMMSVDESLLCSFQILKPAQKSLPRQAGGRKKK

In this test the parent is B1. The experiment in a line: two-hybrid assay (β-galactosidase activity); three independent PJ69-4A transformants; parent: 23; read off a plot.
As to chain 1 E79G, chain 1 L159Q, chain 1 L295I, the response is roughly 6.
For the variant chain 1 D273A, the response is roughly 19.
Take chain 1 W275A: the response was roughly 11.
Take chain 1 F65L, chain 1 Y141H, chain 1 I210T: the response was roughly 13.
Regarding chain 1 D119A, the response is roughly 11.
